Consider 14 molecules from patent US20070280945A1 (Regeneron, published 2007).

B1: VQ1G4-21 hIgG1 (antibody, V domains shown)
VH: QVQLVQSGAEVKEPGASVKVSCKASGYTFTSYDIIWVRQATGQGLEWMGWMNPNSGNTGYTQNLQGRVTLTRNTSITTVYMELSSLSSEDTAVYYCARDYSSHYYGLDVWGQGTTVTVSS
VL: DIQLTQSPSFLSTSIGDRVTITCWASQDISNYLAWYQQKPGKAPKLLIFVASTLQSGVPSRFSGSGSGTEFTLTISSLQPEDFATYYCQQFNSYPLTFGGGTKVEIK
notes: Human IgG1 constant region
B2: VQ1G4-21 hIgG4 (antibody, V domains shown)
VH: B1 VH
VL: B1 VL
notes: Human IgG4 constant region
B3: VQ8A9-6 hIgG1 (antibody, V domains shown)
VH: EVQLVESGGNLVQPGRSLRLSCAASGFIFDDYAMHWVRQAPGKGLEWVSGISWNSGSIGYADSVKGRFTISRDNAKNSLYLQMNSLRAEDTALYYCAKDGGSSWLPFVYYYGMDVWGQGTTVTVSS
VL: EIVMTQSPATLSVSPGERATLSCRASQSISSNFAWYQQKPGQAPRLLIYGASTRATGIPARFSGSGSGTDFTLTISSLQSEDFAVYYCQQYSSWPPYTFGQGTKLEIK
notes: Human IgG1 constant region
B4: VQ8A9-6 hIgG4 (antibody, V domains shown)
VH: B3 VH
VL: B3 VL
notes: Human IgG4 constant region
B5: VQ8F11-21 hIgG4 (antibody, V domains shown)
VH: EVQLVESGGGLVQPGRSLRLSCAASRFTFDDYAMHWVRQAPGKGLEWVSGISWNSGRIGYADSVKGRFTISRDNAENSLFLQMNGLRAEDTALYYCAKGRDSFDIWGQGTMVTVSS
VL: DIQMTQSPSSVSASVGDRVTITCRASQGISSWLAWYQQKPGKAPKLLIYGASSLESGVPSRFSGSGSGTDFTLTISSLQPEDFASYYCQQANSFPYTFGQGTKLEIK
notes: Human IgG4 (wild-type) constant region
B6: VQ8F11-21 hIgG1 (antibody, V domains shown)
VH: B5 VH
VL: B5 VL
B7: VV6A9-5 hIgG1 (antibody, V domains shown)
VH: B5 VH with R26G, M34L, I51V, S55G, E76K, G85S, A88V, S102A, M111L
VL: B5 VL with G50A, E55Q, S85T, Q90H, N92Y
notes: Human IgG1 constant region
B8: VV6A9-5 hIgG4 (antibody, V domains shown)
VH: B5 VH with R26G, M34L, I51V, S55G, E76K, G85S, A88V, S102A, M111L
VL: B5 VL with G50A, E55Q, S85T, Q90H, N92Y
notes: Human IgG4 constant region
B9: VV3D8-4 (antibody, V domains shown)
VH: B5 VH with R26G, M34L, E76K, G85S, S102A, M111L
VL: B5 VL with G50A, E55Q, S85T
notes: Human variable regions with mouse constant region
B10: VV6C10-1 (antibody, V domains shown)
VH: B5 VH with R26G, M34L, I51V, S55G, E76K, G85S, A88V, S102A, M111L
VL: EIVLTQSPATLSLSPGERATLSCRASQSVSSYLAWYQQKPGQAPRLLIYDASNRATGIPARFSGSGSGTDFTLTISSLEPEDFAFYYCQQRNNRPPFTFGPGTKVDVR
notes: as for B9
B11: VV7G4-10 (antibody, V domains shown)
VH: QVQLVQSGAEVKKPGASVKVSCKASGYTFTSYGISWVRQAPGQGLEWMGWISAYNDDTNYAQKFQGRVTMTTDTSTSTAYMELRSLRSDDTAVYYCAREAQLVLYYYYGMDVWGQGTTVTVSS
VL: EIVLTQSPATLSLSPGERATLSCRASQSVSSFLAWNQQKPGQAPRLLIYDASNRATGIPARFSGSGSGTDFTLTISSLEPEDFAVYYCQQRSNWPYIFGQGTKLEIK
notes: as for B9
B12: VV9A6-11 (antibody, V domains shown)
VH: B11 VH
VL: B11 VL
notes: as for B9
B13: VV6F12-11 (antibody, V domains shown)
VH: B1 VH with V20I, N57D, T58R, N73D, T77S, S87R, S102N
VL: B1 VL with T13A, I15V, K107R
notes: as for B9
B14: VV6C10-3 (antibody, V domains shown)
VH: QVQLVQSGAEVKKPGASVKVSCKASGFNFFHYGITWVRQAPGQGLEWMGWISTYNGDTIYAQKVQGRVTMTTDTATSTAYMELRSLRSDDTAVYYCARSEQQVDYYFYGMDVWGQGTTVTVSS
VL: B10 VL
notes: as for B9

Where a chain is given by its changes, count along the chain named.

The first experiment addresses T1, hIL-6R on hIL-6-responsive human cells (XG-1 myeloma line, HepG2 hepatoma line) (human, UniProt P08887 20-468).
T1 sequence (looked up): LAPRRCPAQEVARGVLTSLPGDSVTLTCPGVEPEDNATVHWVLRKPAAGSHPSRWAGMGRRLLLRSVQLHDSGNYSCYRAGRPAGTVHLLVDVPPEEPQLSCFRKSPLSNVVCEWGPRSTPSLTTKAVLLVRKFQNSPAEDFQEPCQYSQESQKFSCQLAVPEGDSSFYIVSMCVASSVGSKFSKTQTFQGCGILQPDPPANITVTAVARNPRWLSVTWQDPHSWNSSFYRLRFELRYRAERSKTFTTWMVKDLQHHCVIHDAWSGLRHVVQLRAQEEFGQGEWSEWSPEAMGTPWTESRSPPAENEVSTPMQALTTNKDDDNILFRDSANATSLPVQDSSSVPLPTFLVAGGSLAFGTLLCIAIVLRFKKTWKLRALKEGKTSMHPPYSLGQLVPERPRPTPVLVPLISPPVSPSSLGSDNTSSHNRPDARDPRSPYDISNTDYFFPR
In words: cell-based or functional assay.
On to B1, for which the “HepG2/STAT3 luciferase assay IC50” value amounted to 0.767 nM.
On the same count and under the same terms, in the case of B2 it was 0.528 nM.
Regarding B3, the “HepG2/STAT3 luciferase assay IC50” value was found to be 0.13 nM.
The same measure, in the same setting: in the case of B4 it was 0.185 nM; in that of B5, 0.228 nM; in that of B6, 0.15 nM.
On the same count and under the same terms, next, B7: 0.204 nM; B8: 0.343 nM.

The target in another experiment is T1, hIL-6R on hIL-6-responsive human cells …. In words: cell-based or functional assay. This is another data set of the same source.
On to B9, for which the “XG-1 cell proliferation Inhibition IC50” value was over 100 nM.
On the same count and under the same terms, next, B10: over 6.9 nM.

The next experiment has as its target T2, hIL-6R-hFc (human, UniProt P08887 20-358).
T2 construct: also called dimeric hIL-6R; Dimer; not shown: human Fc (hFc)
T2 sequence: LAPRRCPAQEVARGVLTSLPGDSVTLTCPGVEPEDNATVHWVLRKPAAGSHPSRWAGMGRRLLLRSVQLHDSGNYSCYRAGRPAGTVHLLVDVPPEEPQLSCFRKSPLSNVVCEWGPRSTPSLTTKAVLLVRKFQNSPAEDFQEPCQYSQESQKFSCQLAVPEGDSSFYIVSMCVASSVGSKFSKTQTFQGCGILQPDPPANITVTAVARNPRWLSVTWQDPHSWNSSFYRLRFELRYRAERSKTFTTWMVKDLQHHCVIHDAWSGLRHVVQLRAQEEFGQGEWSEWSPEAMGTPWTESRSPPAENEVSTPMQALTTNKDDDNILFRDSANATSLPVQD
In words: competition ELISA: antibody premixed with serial dilutions of hIL-6R-hFc, free antibody detected on hIL-6R-hFc-coated plate. For orientation: ELISA stands for enzyme-linked immunosorbent assay.
On to B11, for which the IC50 was found to be 1.98 nM.
As to B12, the IC50 stood at 0.347 nM.
The molecule B13 returned a concentration for half-maximal inhibition (IC50) of 0.033 nM. Against the preceding molecule, the IC50 is about 11-fold lower.
In turn, B14 returned an IC50 of 0.009 nM.
On the same count and under the same terms, next, B9: 0.013 nM; B10: 0.01 nM.

Another experiment deals with T3, hIL-6R recombinant protein (plate-coated, Example 5) (human, UniProt P08887 20-358, limits assumed).
T3 construct: also called antigen
T3 sequence: T2 sequence
In words: SPR (BIAcore) competition on hIL-6R; competitor: control antibody. A general note: Surface plasmon resonance follows binding to a sensor surface in real time, without labels.
As to B9, the “% reduction of binding by control antibody” value (shortened to “% reduction of binding”) was 97%.
Regarding B10, the “% reduction of binding” value worked out at 90%.

The target of a further experiment is T4, recombinant hIL-6R protein, monomeric form (human, UniProt P08887 20-358).
T4 construct: also called monomeric hIL-6R; Human IL6R
T4 sequence: T2 sequence
The experiment is described as follows: SPR (BIAcore), antibody captured on anti-mouse IgG surface, monomeric hIL-6R.
For the molecule B9, the Kd was found to be 2.41 nM.
The same measure, in the same setting: in the case of B10 it was 0.267 nM.

Another experiment deals with T4, recombinant hIL-6R protein, monomeric …. In words: Kinexa solution-phase competition immunoassay, monomeric hIL-6R.
For the molecule B9, the dissociation constant (Kd) stood at 1.91 nM.
In the case of B10, the Kd stood at 2.05 nM.

The target in a further experiment is T2, hIL-6R-hFc. The experiment is described as follows: blocking ELISA: 100 pM hIL-6R-hFc premixed with varied antibody, free hIL-6R-hFc captured on hIL-6-coated plate.
Molecule B11 returned a half-maximal inhibitory concentration (IC50) of 13 nM.
B12 came in with an IC50 of 0.5 nM.
The same measure, in the same setting: next, B13: 2.2 nM; B14: 0.06 nM; B9: 0.61 nM.
Still for that read-out and setting: in the case of B10 it was 4.6 nM.

The target in the next experiment is T2, hIL-6R-hFc. In words: SPR (BIAcore), antibody captured on anti-mouse IgG surface, dimeric hIL-6R.
Turning to B9, binding was characterised by a dissociation constant (Kd) of 0.172 nM.
B10 registered a dissociation constant (Kd) of 0.032 nM.

The target in a further experiment is T2, hIL-6R-hFc. The experiment is described as follows: SPR (BIAcore): hIL-6R-hFc captured, antibody injected, then 50 nM hIL-6; percent reduction in hIL-6 binding.
With B9, the “hIL6/hIL6R Binding Inhibition (%)” value came to 93%.
On the same count and under the same terms, next, B10: 61%.

Another experiment concerns the target T3, hIL-6R recombinant protein …. In words: competition ELISA on hIL-6R-coated plate presaturated with competitor control antibody; test antibody 50 ng/ml.
Regarding B11, the “% reduction of binding” value amounted to 26%.
Same read-out and setting: in the case of B12 it was 18%; in that of B13, 3%.
As to B14, the “% reduction of binding” value was determined as 1%.
The same measure, in the same setting: next, B9: 84%; B10: 80%.

The next experiment deals with T4, recombinant hIL-6R protein, monomeric …. The experiment is described as follows: SPR (BIAcore), antibody captured on goat anti-human Fc, monomeric hIL-6R 1.56-12.5 nM.
In the case of B1, the Kd turned out to be 0.237 nM, the koff worked out at 7.92e-05 s⁻¹ and the association rate constant (kon) came out at 334000 M⁻¹ s⁻¹.
On to B2, for which the Kd is 0.336 nM, the koff amounted to 9.18e-05 s⁻¹ and the on-rate constant (kon) came out at 273000 M⁻¹ s⁻¹.
The matching figures for B3: 0.238 nM, 0.00026 s⁻¹ and 1.09e+06 M⁻¹ s⁻¹.
Taken in the same sequence, the figures for B4 were 0.201 nM, 0.000235 s⁻¹ and 1.17e+06 M⁻¹ s⁻¹.
As to B5, the Kd is 0.073 nM, the off-rate (koff) came out at 5.22e-05 s⁻¹ and the kon worked out at 717000 M⁻¹ s⁻¹.
Turning to B6, the dissociation constant (Kd) was found to be 0.073 nM, the off-rate (koff) stood at 4.54e-05 s⁻¹ and the kon worked out at 622000 M⁻¹ s⁻¹.
Taken in the same sequence, the figures for B7 were 0.125 nM, 8.87e-05 s⁻¹ and 712000 M⁻¹ s⁻¹.
As for B8, the Kd was found to be 0.135 nM, the koff was found to be 7.64e-05 s⁻¹ and the kon came to 567000 M⁻¹ s⁻¹.

For orientation: IC50 means the concentration that inhibits the measured activity by half. Lower therefore signals greater potency. By Kd is commonly meant the constant that tells how readily two partners part at equilibrium. The koff is the rate constant with which the complex falls apart. What is called kon is the second-order rate constant of association.
